Experimental data from US20070065429A1, “Nogo-receptor antagonists for the treatment of conditions involving amyloid plaques” (Biogen Idec MA Inc., priority 2003, published 2007).

How the values were obtained:
sNgR310 = target: T1, sNgR310 (Rattus norvegicus, UniProt Q99M75, A303T/C287S/C43R/E284G/T53A); assay: Aβ42 effect on Biotin-Aβ40 binding to immobilized sNgR310; settings: dose-dependent, streptavidin HRP
T1 sequence (Q99M75 27-310 C43R/T53A/E284G/C287S/A303T): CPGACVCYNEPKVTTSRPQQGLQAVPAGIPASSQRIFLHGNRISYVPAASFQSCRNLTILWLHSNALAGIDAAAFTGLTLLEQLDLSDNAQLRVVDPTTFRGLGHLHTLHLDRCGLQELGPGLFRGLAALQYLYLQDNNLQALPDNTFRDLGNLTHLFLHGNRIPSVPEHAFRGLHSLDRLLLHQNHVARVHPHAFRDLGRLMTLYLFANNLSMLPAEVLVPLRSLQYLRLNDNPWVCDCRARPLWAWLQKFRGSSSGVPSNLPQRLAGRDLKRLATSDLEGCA
Excerpt: We examined whether the interaction between NgR and Aβ peptide has a role in aggregate formation. sNgR310 was immobilized on microtiter plates and Biotin-Aβ40 was applied along with Aβ42 peptide.

human NgR1 [1] = target: T2, human NgR1 (Homo sapiens, UniProt Q9BZR6); assay: Aβ42 effect on Biotin-Aβ40 binding to SKNMC cells expressing human NGR1; settings: SKNMC cells expressing human NGR1, dose-dependent
T2 construct: expressed in transfected cells; host or cells: SKNMC cells
T2 sequence (Q9BZR6 27-447): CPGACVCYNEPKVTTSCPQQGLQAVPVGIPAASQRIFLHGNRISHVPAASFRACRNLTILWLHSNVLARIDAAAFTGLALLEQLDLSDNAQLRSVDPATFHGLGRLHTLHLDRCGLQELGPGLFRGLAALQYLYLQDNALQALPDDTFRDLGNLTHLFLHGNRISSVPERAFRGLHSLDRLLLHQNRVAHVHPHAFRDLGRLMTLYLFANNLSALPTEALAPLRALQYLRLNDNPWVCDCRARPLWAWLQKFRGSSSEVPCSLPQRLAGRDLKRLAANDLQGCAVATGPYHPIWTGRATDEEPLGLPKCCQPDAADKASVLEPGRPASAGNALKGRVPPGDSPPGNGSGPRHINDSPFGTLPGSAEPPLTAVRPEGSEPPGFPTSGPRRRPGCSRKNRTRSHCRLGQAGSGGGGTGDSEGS

sNgR310-Fc = target: T3, sNgR310-Fc (Rattus norvegicus, UniProt Q99M75, A303T/C287S/C43R/E284G/T53A); assay: Competition of free Aβ with NgR ligands on sNgR310-Fc coated wells; format: binding; settings: competition assay
T3 construct: Fc portion of IgG (rat)
T3 sequence (Q99M75 27-310 C43R/T53A/E284G/C287S/A303T): T1 sequence (Q99M75 27-310 C43R/T53A/E284G/C287S/A303T)
Procedure: We analyzed whether Aβ (1-28) binding competed for NgR binding with other known ligands for NgR by allowing 250 nM soluble AP-Aβ(1-28) or AP-Nogo (1-33) to bind to wells coated with purified sNgR310-Fc in the presence of various concentrations of competing free Aβ. […] We observed that the Aβ peptides bind to both sNgR310-Fc and sNgR344-Fc. […] However, Aβ(1-28) displaced Aβ-AP binding but not AP-Nogo-66 (1-33) or AP-OMgp binding in competition assays. The Aβ peptide may begin to displace AP-MAG very slightly at high concentrations in our experiments. Thus, the Aβ binding site on NgR appears largely distinct from that for the myelin ligands NogoA, OMgp and MAG. Consistent with this, the presence of Aβ had little effect on myelin or Nogo-66 inhibition of neurite outgrowth.

NgR = target: T4, NgR (Homo sapiens, UniProt Q9BZR6); assay: AP-Aβ(1-28) fusion protein binding to NgR-expressing COS cells; settings: not to vector-transfected COS cells
T4 construct: expressed in transfected cells; host or cells: COS cells
T4 sequence (Q9BZR6 27-473): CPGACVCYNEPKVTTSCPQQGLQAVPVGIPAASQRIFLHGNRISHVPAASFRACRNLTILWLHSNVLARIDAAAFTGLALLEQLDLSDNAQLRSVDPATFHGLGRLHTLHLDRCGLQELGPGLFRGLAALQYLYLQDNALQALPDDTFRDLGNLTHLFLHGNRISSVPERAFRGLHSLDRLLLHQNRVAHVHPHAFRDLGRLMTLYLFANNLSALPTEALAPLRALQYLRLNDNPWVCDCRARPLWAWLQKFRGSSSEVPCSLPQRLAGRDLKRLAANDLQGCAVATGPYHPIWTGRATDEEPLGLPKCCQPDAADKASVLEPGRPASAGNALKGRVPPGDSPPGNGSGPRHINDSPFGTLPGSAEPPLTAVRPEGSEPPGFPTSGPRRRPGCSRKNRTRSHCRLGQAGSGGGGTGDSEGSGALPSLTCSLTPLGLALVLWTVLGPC
Excerpt: We then investigated whether the Aβ region of APP is involved in its interaction with NgR—including whether the fibrillogenic Aβ42-3 peptide binds NgR. We created two fusion protein constructs containing alkaline phosphatase (AP) and the hydrophilic region of Aβ (amino acids 1-28) by fusing the coding sequence in frame with the signal sequence-6×His-placental alkaline phosphatase (AP) sequence of the vector pAP-6 (Nakamura et al., Neuron 2: 1093-1100, 1988). The AP-Aβ and Aβ-AP proteins both bound to NgR-expressing COS cells but not to vector-transfected COS cells. This binding was saturable with an apparent Kd of 60 nM. The interaction also was detected using purified Biotin-Aβ(1-40) in an ELISA-type assay with immobilized NgR.

NgR2 = target: T5, NgR2 (Homo sapiens, UniProt Q86UN3); assay: Aβ-AP binding specificity, NgR2
T5 sequence (Q86UN3 47-390): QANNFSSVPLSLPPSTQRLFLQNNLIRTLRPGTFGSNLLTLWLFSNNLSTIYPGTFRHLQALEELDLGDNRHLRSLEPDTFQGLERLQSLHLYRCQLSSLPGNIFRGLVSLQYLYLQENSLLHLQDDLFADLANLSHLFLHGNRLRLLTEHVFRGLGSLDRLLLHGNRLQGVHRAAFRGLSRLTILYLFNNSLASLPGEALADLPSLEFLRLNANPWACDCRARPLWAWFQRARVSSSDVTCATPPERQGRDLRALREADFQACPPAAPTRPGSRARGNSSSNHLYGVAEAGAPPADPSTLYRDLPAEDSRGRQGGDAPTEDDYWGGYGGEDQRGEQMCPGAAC
Excerpt: (§1) The specificity and selectivity of the Aβ(1-28) interaction with NgR was probed in several ways. The interaction was specific for NgR1 because neither NgR2 or NgR3—which share sequence similarity with NgR—bound Aβ-AP. Further, we observed species specificity: human NgR binds human AB to a greater extent than mouse NgR binds human AB or human NgR binds mouse AB or mouse NgR binds mouse Aβ.

NgR3 = target: T6, NgR3 (Homo sapiens, UniProt Q86UN2); assay: Aβ-AP binding specificity, NgR3
T6 sequence (Q86UN2 25-420): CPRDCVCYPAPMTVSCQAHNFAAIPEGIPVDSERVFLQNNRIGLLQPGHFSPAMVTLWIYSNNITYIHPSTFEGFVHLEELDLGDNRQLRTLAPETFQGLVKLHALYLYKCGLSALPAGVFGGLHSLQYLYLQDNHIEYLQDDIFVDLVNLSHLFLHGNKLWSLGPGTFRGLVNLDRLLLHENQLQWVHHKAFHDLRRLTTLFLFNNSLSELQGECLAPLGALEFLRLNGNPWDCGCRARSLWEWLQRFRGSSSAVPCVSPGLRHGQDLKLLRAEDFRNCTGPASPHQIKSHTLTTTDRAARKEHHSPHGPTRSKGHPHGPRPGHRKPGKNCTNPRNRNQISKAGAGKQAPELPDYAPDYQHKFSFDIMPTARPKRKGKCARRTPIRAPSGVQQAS
Excerpt: as §1

human NgR1 [2] = target: T2, human NgR1; assay: Fluo-Aβ42 binding to SKNMC cells expressing human NgR-1; settings: 2 h at 4° C.

Aβ42 peptide: fibrillogenic Aβ42 peptide
effect on binding of Biotin-Aβ40 peptide to immobilized sNgR310 (sNgR310): enhanced
effect on binding of Biotin-Aβ40 peptide to cells (human NgR1 [1]): enhanced

Aβ(1-28): free Aβ peptide, amino acids 1-28, used as competitor
displacement of AP-Nogo-66 (1-33) binding (sNgR310-Fc): not
displacement of AP-OMgp binding (sNgR310-Fc): not
displacement of Aβ-AP binding (sNgR310-Fc): displaced

Aβ-AP: fusion protein of the hydrophilic region of Aβ (amino acids 1-28) and alkaline phosphatase (AP)
binding to NgR-expressing COS cells (NgR): bound
binding to NgR2 (NgR2): neither
binding to NgR3 (NgR3): neither

Fluo-Aβ42: labelled fibrillogenic Aβ42 peptide
binding to SKNMC cells expressing human NgR-1 (human NgR1 [2]): binds
